Source: article PMC11375770, “Fragment-Based Interrogation of the 14–3–3/TAZ Protein–Protein Interaction” (Biochemistry, 2024)
Blank lines part the entries; values can stand above or below the molecule they belong to. Where no end group is shown, it is not given here. [ ]: non-standard residue; d: D form. pS = N[C@@H](COP(=O)(O)O)C(=O)O

Columns and labels:
14-3-3ζ = molecular target: T1, 14-3-3ζ (Homo sapiens, UniProt P63104); experiment: MST dose-response; also DSF and WaterLOGSY NMR with the TAZ peptide complex; assay type: binding
T1 construct: gene YWHAZ; with ERα-derived phosphopeptide (similar Kd with TAZpS89 peptide)
T1 sequence (P63104 1-245): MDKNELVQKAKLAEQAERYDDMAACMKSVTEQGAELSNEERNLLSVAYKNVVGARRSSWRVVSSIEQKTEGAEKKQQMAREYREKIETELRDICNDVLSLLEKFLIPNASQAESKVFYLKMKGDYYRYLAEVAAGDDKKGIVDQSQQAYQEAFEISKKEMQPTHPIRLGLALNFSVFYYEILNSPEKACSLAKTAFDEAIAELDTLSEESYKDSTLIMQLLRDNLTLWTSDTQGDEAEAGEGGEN
T1 sequence (P03372 1-595 partner): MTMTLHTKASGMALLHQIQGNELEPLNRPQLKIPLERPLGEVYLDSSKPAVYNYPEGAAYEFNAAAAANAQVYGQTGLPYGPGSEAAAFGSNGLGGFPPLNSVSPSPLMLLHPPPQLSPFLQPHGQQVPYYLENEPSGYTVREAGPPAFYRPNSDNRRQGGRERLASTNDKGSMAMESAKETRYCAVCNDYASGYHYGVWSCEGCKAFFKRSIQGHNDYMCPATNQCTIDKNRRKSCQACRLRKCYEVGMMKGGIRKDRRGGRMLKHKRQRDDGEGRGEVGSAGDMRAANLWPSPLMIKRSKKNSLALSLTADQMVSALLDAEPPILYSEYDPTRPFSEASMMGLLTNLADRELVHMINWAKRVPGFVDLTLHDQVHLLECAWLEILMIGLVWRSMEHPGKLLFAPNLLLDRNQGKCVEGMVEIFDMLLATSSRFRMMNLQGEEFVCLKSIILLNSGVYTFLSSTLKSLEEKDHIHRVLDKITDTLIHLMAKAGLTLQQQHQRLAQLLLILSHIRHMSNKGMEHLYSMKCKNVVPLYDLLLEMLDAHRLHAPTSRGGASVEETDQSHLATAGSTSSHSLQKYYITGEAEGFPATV

[1] = molecular target: T2, 14-3-3ζ labelled with NT647-NHS dye (human, UniProt P63104 1-245, NT647-NHS dye (Monolith Protein Labeling Kit RED-NHS); labelled residues not stated); experiment: MST; TAZpS89 peptide titrated against a fixed concentration of NT647-labelled 14-3-3ζ; DPBS with 0.05% Tween20, 25 °C; apparent Kd; absence of fragment; conditions: both partners purified
T2 construct: Same construct as m1, with the fluorescent dye for MST; also called labeled 14-3-3ζ; source: E. coli BL21 (DE3), pProEX HTb plasmid, purified (Ni2+-NTA), labelled with Monolith Protein Labeling Kit RED-NHS
T2 sequence (looked up): T1 sequence (P63104 1-245)

[2] = molecular target: T2, 14-3-3ζ labelled with NT647-NHS dye; experiment: MST; TAZpS89 peptide titrated against a fixed concentration of NT647-labelled 14-3-3ζ; DPBS with 0.05% Tween20, 25 °C; apparent Kd; presence of 1 mM fragment TCF199; conditions: both partners purified
[3] = molecular target: T3, 14-3-3σΔC (C-terminally truncated after T231) (human, UniProt P31947 1-231); experiment: crystal structure; 14-3-3σΔC mixed 1:2 with the peptide, sitting drop, 0.095 M Hepes pH 7.5, PEG 400 26%, 0.19 M CaCl2, 5% glycerol; crystals soaked with 10 mM TCF199; conditions: both partners purified
T3 construct: also called 14-3-3sigma
T3 sequence (looked up): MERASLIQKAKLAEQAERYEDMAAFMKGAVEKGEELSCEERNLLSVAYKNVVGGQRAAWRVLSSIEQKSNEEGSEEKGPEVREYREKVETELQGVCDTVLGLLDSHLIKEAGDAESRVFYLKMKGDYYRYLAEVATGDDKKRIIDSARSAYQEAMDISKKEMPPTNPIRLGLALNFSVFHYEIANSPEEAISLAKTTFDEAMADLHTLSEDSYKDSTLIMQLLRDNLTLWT

Kd (14-3-3ζ): 112000 ± 77000 nM
Molecule: O=C(Nc1ccccc1)OCC12CCCCC1NCCC2 (stereo not shown) [TCF199]

Kd [1]: 1380 nM
Kd [2]: 40 nM
binding result [3]: binds
B1: TAZpS89 peptide (peptide)
peptide: QHVRSH[pS]SPASLQ
notes: TAZ-derived peptide surrounding phosphorylated Ser89; The methods of crystallisation say only 'the peptide'; also called TAZ-derived peptide; TAZ peptide; source: synthetic peptide (bought: Caslo, Denmark)
